Measurements: the supplement of paper PMC9170038

Key:
[1] = test system: MS2 coat protein; assay: apparent KD of MS2 coat protein, switch ON state; designed switch direction (-1 OFF switch, 1 ON switch): 1; higher = weaker reporter binding; settings: FMN input: 0 or 200 uM; Eterna round: R93 (includes R88 designs)
Procedure, shortened: (§1)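 Illumina sequencing clusters served as templates for on-chip transcription of the designed RNA switches. SNAP-549-labelled MS2 coat protein was then titrated in twofold steps from 0.7 or 1.5 nM to 3 µM, allowing 0.8–1.5 h per step at first and 10–20 min per step later. The buffer held 100 mM Tris-HCl pH 7.5, 80 mM KCl and 4 mM MgCl2, without or with constant ligand. Apparent KD is the median per design of normalised cluster binding-curve fits.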

[2] = test system: MS2 coat protein; assay: apparent KD of MS2 coat protein, switch OFF state (with FMN for OFF switches, without FMN for ON switches); designed switch direction (-1 OFF switch, 1 ON switch): 1; higher = weaker reporter binding; settings: FMN input: 0 or 200 uM; Eterna round: R93 (includes R88 designs)
Procedure, shortened: as §1

Sequence	apparent KD of MS2 coat protein [1]	apparent KD of MS2 coat protein [2]
CGAAAGGAGAGAGAGGAUAUCCAAAGGAAAACAUGAGGAUCACCCAUGUAGAAGGUAGGAGAUUGGGAGAAGGCUCAAGAGAGCU [salish99-ss2-152]	30.5 nM	32.6 nM
AGAAAUAAAAUGGAGGAUAUCCAAAAGAAAACAUGAGGAUCACCCAUGUAAAAGAAAAUAAAAUGGGAGAAGGCCAAAAAUAAAG	23 nM	47.2 nM
AUUUUACAUGAGGAUCACCCAUGUUUUGGUGGAUCAGGAUAUAAAUUGAAUGAGUUUUAGUUAGAAGGGAUAUAUA [JR_SS001_Sub505]	78.4 nM	54 nM
GAAAUAAAAACACAGGAUAUCCAAAAGAAAACAUGAGGAUCACCCAUGUAAAGAAAAUAAAAAUGGGAGAAGGGUGAAAAUAAAG [Mat - Same State 2 - JL mod - D25]	26.4 nM	93.8 nM
AAAAAACAUGAGGAUCACCCAUGUGAAAAAAUCGCAGGAUAUCCCUUUUUUAAAUGGGAGGGAGAAGGGUGAAAAA [Nob's Hobby 15 - Jieux - Same State 1]	40.3 nM	84.7 nM
UAUCAUUACACGAAGGAUAUCGAUAAUUGAACAUGAGGAUCACCCAUGUGACAUAUCUUACAGUUCGAGAAGGUCGAGGGUGAAG [JR_SS002_Sub706]	28.9 nM	52 nM
AAAUAAAGGACUGAGGAUAUACCACAUGAAACAUGAGGAUCACCCAUGUUGAAAAACAAAGGGUGGUAGAAGGUAGUCCACAAAC [Same State 2.5a ( so lets mod hyphema)]	17.2 nM	29.3 nM
CGCAAACAUGAGGAUCACCCAUGUCAAUGUGGUCAAGGAUAUGGGUUCCUAAAUGGAACACCAGAAGGUGAAAAGA [Anesatve]	20 nM	54.5 nM
AUAAAUAAAAUCGAGGAUAUCCAAUAAUAAACAUGAGGAUCACCCAUGUAAAAGAAAAUAUAAUGGGAGAAGGCGAAUAAUAAAU [JR_SS002_Sub1701]	16.3 nM	20 nM
AGAAGACAUGAGGAUCACCCAUGUGGGAAUAUGGGAGGAUAUACAAAGACGAGAGUCAGAGUAGAAGGCCUAGGCC [salish99-ss1-110]	49.8 nM	131 nM
GGGAGACAUGAGGAUCACCCAUGUGAGAAGAGGCGAGGAUAUCGAAAGAAAGAAGAGAAACGAGAAGGCGCGAGGG [salish99-SS1-059]	57.4 nM	75 nM
CAACAGAGAGGACAGGAUAUGUCGUGAUAAACAUGAGGAUCACCCAUGUGAGACAUCACGUAGUCGCAGAAGGGUCCCGUCUUAC [Esleerandi]	15.3 nM	18.8 nM
AAAAAACAUGAGGAUCACCCAUGUAAUAAAACGUCAGGAUAUUGAUUUUAUUAUUUAUUGCGAGAAGGGACAAAAA [Same State 1 - Omei 3]	20.2 nM	28.6 nM
CAUCAUGCGCCUAAGGAUAUGUCUCACAAGACAUGAGGAUCACCCAUGUAGAAUAAAUAAAUGAUGCAGAAGGUGGAGUGCAUGC [Rierre]	72.1 nM	334 nM
AACGUGACGACAUAGGAUAUGUACACACGUACAUGAGGAUCACCCAUGUGACUAGUAAUCGUGUGGCAGAAGGGUGAAGUCUCGA [Anzasousra]	21.4 nM	31.4 nM
CCGAUGGUAUACUAGGAUAUGGGCGCCCUUACAUGAGGAUCACCCAUGUUAUCACAAAGCCGCGGCCAGAAGGAGUUCAUGGGAG [Tieronsove]	94.7 nM	122 nM
GAAAAACAUGAGGAUCACCCAUGUAGAAACAUGGGAGGAUAUACAAAGACGAAAGUCAAAGUAGAAGGCCUAAAAA [Mat - Same State 1 - Mod - D160]	149 nM	851 nM

Sequence	apparent KD of MS2 coat protein [1]	apparent KD of MS2 coat protein [2]
AACAAUCUAUCUGAGGAUAUGUGUCGAAAGACAUGAGGAUCACCCAUGUAAAAACAUGAAAAAUCACAGAAGGCAGAUAGAUUGA [SS2: 1144]	59.3 nM	144 nM
AGGAGACAUGAGGAUCACCCAUGUGAGAAGAGGCGAGGAUAUCGAAAAAAAAAAAAAAAACGAGAAGGCGCGAGAA [salish99-SS1-002]	35.4 nM	58.2 nM
UUUAGGAAGAGAGAGGAUAUCCAAAGGAAAACAUGAGGAUCACCCAUGUAAAAGGUAGGAAAUUGGGAGAAGGCUCAAGAGAGAG [salish99-ss2-078]	5.84 nM	16.5 nM
AAAAACAUAGUUCAGGAUAUGGUAAUAGUCACAUGAGGAUCACCCAUGUUCAUUUAUAUGAGCGAUCAGAAGGGAGGUAAAAAAA [Mat - Same state - Malcolm Mod - D115]	124 nM	125 nM
AAGAAACAUGAGGAUCACCCAUGUAAAAUAAACACAGGAUAUGCGAAAAGAAACAAAGAAGCAGAAGGGUGAAGAA [Mat - Same State 1 - Tesla mod - 56]	16.9 nM	36.2 nM
GAUAGACAUGAGGAUCACCCAUGUAGAAUUAUGGGAGGAUAUACAAAGACGAGAGUCAGAGUAGAAGGCCUAGGAG [salish99-ss1-158]	28.1 nM	69.2 nM
UAAAAACAUGAGGAUCACCCAUGUGAGAACAUGGGAGGAUAUACAAGGACGAAAGUCAAAGUAGAAGGCCUAAAAU [Mat - Same State 1 - Mod - D176]	99.8 nM	29.3 nM
AAUAGACAUGAGGAUCACCCAUGUAGAAUUAUGGGAGGAUAUACAAAGACGAGAGUCAGAGUAGAAGGCCUAGGAC [salish99-ss1-151]	20.7 nM	54 nM
GAAAAACAUGAGGAUCACCCAUGUGAGAACAUGGGAGGAUAUACGAGGACGAAAGUCAAAGUAGAAGGCCUAAGAG [Garnet 86]	164 nM	30 nM
AAAAAAAAAAGCUAGGAUAUCCAAAAAAAAACAUGAGGAUCACCCAUGUAAAAAAAAAAAAAAUGGGAGAAGGAGCAAAAAAAAAA [Mod of Eli]	28.5 nM	39.6 nM
AGGAAACAUGAGGAUCACCCAUGUAAAAAUAUGGAAGGAUAUGGAAACACGAAAGUGAAACCAGAAGGUCCGAAAA [77%, Mat - Mod of Eli, 19]	13.1 nM	23.1 nM
AUAAAACAUGAGGAUCACCCAUGUAGAAAUAUGGGAGGAUAUACAAAGACGAAAGUCGAAGUAGAAGGCCUAAAAG [Mat - Same State 1 - Meechl mod - D117]	27.4 nM	68.3 nM
AUAAAUAAAAGAGAGGAUAUCCAAAAGAAAACAUGAGGAUCACCCAUGUGAAAGAAAAUAAAAUGGGAGAAGGCUCACAAUAAUA [Topaz 32]	23 nM	26 nM
GGAACACAUGAGGAUCACCCAUGUCAAGGAGGUCGAGGAUAUAGGAAAAAAAAAAAAAAAUUAGAAGGUGAGGAGG [V1]	169 nM	139 nM
GAAAAACAUGAGGAUCACCCAUGUAGAAAUAUGGGAGGAUAUACAAAGUGGAAAGACAAAGUAGAAGGCCUAAAAG [Garnet 25]	35.6 nM	309 nM
UGAUUGAGAUUGUAGGAUAUUGGAAAAGCCACAUGAGGAUCACCCAUGUCAAAAAAAAAAAAAAACAAGAAGGGCGGUUUUAGUUA [Same State 2]	58.4 nM	64.5 nM
